The source of these data is patent US11162087B2, “Beta-glucosidase, enzyme composition including same, and method for manufacturing sugar solution using same” (RIKEN, priority 2017, dated 2021).

Assay [1] is described as follows: β-glucosidase activity measurement with pNP-Glc. Type of assay: biochemical. The note with it: cell-free extract, volume reduced to one-twelfth by ultrafilter membrane; detection limit 0.075. Here is the method:
In the present invention, “β-glucosidase” means an enzyme that catalyzes a reaction for hydrolysis degradation of a sugar β-glucoside bond. In the present invention, a method for measuring a β-glucosidase activity utilizes a reaction using p-nitrophenyl-β-D-glucopyranoside (pNP-Glc) as a substrate. Specifically, an enzyme liquid is added to a substrate solution prepared by dissolving pNP-Glc in 50 mM acetic acid-sodium acetate buffer solution (pH 5.0) and reacted at 30° C. for 10 minutes; and the reaction is stopped by well mixing with 2M sodium carbonate in an amount equivalent to one-tenth of a reaction system volume to measure an increase of the absorbance at 405 nm. When p-nitrophenol is released and the absorbance at 405 nm is increased after the above reaction, it is determined that the β-glucosidase activity is present.
10 μL of an enzyme diluted solution was added to and reacted with 90 μL of 50 mM acetic acid buffer containing 1 mM p-nitrophenyl-β-glucopyranoside (manufactured by Sigma-Aldrich Japan) at 30° C. for 10 minutes. Thereafter, 10 μL of 2M sodium carbonate was added and well mixed to stop the reaction, and an increase of absorbance at 405 nm was measured. The activity to release 1 μmol of p-nitrophenol per minute was defined as 1 U. For a blank, 10 μL of 2M sodium carbonate was added to and well mixed with 90 μL of 50 mM sodium acetate buffer containing 1 mM p-nitrophenyl-β-glucopyranoside, and thereafter, 10 μL of an enzyme diluted solution was added to cause a reaction at 30° C. for 30 minutes. Thereafter, an increase of absorbance at 405 nm was measured. At this time, the enzyme liquid was diluted so as not to exceed an absorbance at 405 nm of 1. In addition, a calibration curve was created based on absorbances measured by preparing p-nitrophenol solutions at concentrations of 0.1 mM, 0.2 mM, 1 mM and 2 mM; using 10 μL of them instead of an enzyme diluted solution; and adding and well mixing 10 μL of 2M sodium carbonate for color development.

Assay [2] in a line: Inhibitory action of glucose on the β-glucosidase activity. Type of assay: biochemical. The note with it: 1 mM pNP-Glc, 30° C., 100 minutes. The source says: The β-glucosidase derived from a protist of the genus Pseudotrichonympha of the present invention is preferably less likely to suffer from inhibition by glucose on the 3-glucosidase activity. Specifically, when the β-glucosidase activity in the absence of glucose is taken unity, the β-glucosidase activity under a condition of a glucose concentration of 8 g/L (or in the presence of 8 g/L glucose) is preferably 0.5 or more, more preferably 0.6 or more, more preferably 0.7 or more, more preferably 0.8 or more, more preferably 0.9 or more, more preferably 1.0 or more, more preferably 1.1 or more, more preferably 1.2 or more, more preferably 1.3 or more, and in particular preferably 1.4 or more. Further, in addition to the β-glucosidase activity under the condition of the glucose concentration of 8 g/L, when the β-glucosidase activity in the absence of glucose is taken as unity, the β-glucosidase activity under a condition of a glucose concentration of 20 g/L (or in the presence of 20 g/L glucose) is preferably 0.5 or more, more preferably 0.6 or more, and in particular preferably 0.7 or more. The method used herein for measuring the β-glucosidase activity is the same as the above-described method except that 8 g/L or 20 g/L of glucose is added at the time of measuring; and results obtained thereby are used.
An enzyme solution was added to a mixture solution containing 1 mM p-nitrophenyl-β-glucopyranoside (manufactured by Sigma-Aldrich Japan), 50 mM acetic acid buffer and 0, 4, 8 or 20 g/L glucose such that the total amount of the reaction solution became 100 μL, causing a reaction at 30° C. for 100 minutes. Thereafter, 10 μL of 2M sodium carbonate was added and well mixed to stop the reaction, and an increase of absorbance at 405 nm was measured. The activity to release 1 μmol of p-nitrophenol per minute was defined as 1 U. For a blank, 10 μL of 2M sodium carbonate was added to an amount, equivalent to that of the above mixture solution for the reaction solution before addition of the enzyme solution, of a mixture solution containing 1 mM p-nitrophenyl-β-glucopyranoside, 50 mM sodium acetate buffer and 0, 4, 8 or 20 g/L glucose, and mixed well; and then, the enzyme solution was added such that the total solution amount of the blank became 110 μL, causing a reaction at 30° C. for 30 minutes. Thereafter, an increase of absorbance at 405 nm was measured.
In accordance with Reference Example 8, the inhibitory action of glucose on the β-glucosidase activity was measured in enzyme compositions: containing the β-glucosidase and the genus Trichoderma filamentous fungus-derived cellulase prepared in Example 10; and the cell-free extract of β-glucosidase mutant gene transformed E. coli prepared in Example 5. For a comparative control, only the genus Trichoderma filamentous fungus-derived cellulase was used, and the inhibitory action of glucose on the β-glucosidase activity was measured in the same manner. […] That is, both of the enzyme composition containing the β-glucosidase of the present invention and the genus Trichoderma filamentous fungus-derived cellulase, and the cell-free extract of β-glucosidase mutant gene transformed E. coli were less likely to suffer from inhibition on the β-glucosidase activity by glucose, compared to only the genus Trichoderma filamentous fungus-derived cellulase, and the enzyme composition of Comparative Example 1 containing the genus Aspergillus filamentous fungus-derived β-glucosidase and the genus Trichoderma filamentous fungus-derived cellulase.

B1: Mutant 1: His-tagged polypeptide of SEQ ID NO: 6, 88% identity with SEQ ID NO: 1; tested as cell-free extract of transformed E. coli (protein)
chain: QIEGLINVMTLEEKVGQMAQLAIDLFIDVPTDTVIPEAARKGIIDYKIGSILNTYGGVSHSKEVWTYINAEFYKYTEETDLKIPILYGLDSIHGANFVNNFTSFPQQIGMAATFNPSLLKEGSRISAYETRAASVGWVFSPVMDLGLDPRWPRIWEGFGEDPYLSSQFGIASVHGFQGKDPNLIDEFHVAACAKHYLAYSNPFTGKDRTPAILSDIFIREYHLPSFKAAVDAGVASVMVNSGLINGIPTHMNHYLLTTVLKEELGFQGVIVTDWQDIENIHTRDHLAPTQKDAVKLAINAGIDMSMIPYNYDFIDYLIELVHEGEVSIDRINDAVRRILKMKAKMNLWDLPVTKSEDYPEFGSEAHANASYTAASESITLLKNENSTLPLAKNTKVLVVGPNSNSHRSLNGGWSYSWQGNAGVQYAVQYNTIYQAIQKVNGEENTVFSQGVRYIETGNYYEDEEVNISESVALARDVDYIILALGENTYTEKPGDLSDLEISQNQIDLAKALASTGKPIILVLNQGRPRIISRIEQLVSAILWIYWPGNYGGDALADILFGDVNPSGKLPVTYPRYSASLNTRIVSGGSDSFSEGLFIDYKHFDDANITPRYEFGYGLSYTKFNYSRLSVLSTAKSGPATGAVVPGGPSDLFQNVATVTVDIANSGQVTGAEVAQLYITYPSSAPRTPPKQLRGFAKLNLTPGQSGTATFNIRRRDLSYWDTASQKWVVPSGSFGISVGASSRDIRLTSTLSVA
modifications: His tag; amino acid sequence having 88% sequence identity with amino acid sequence of SEQ ID NO 1
notes: tested as cell-free extract of transformed E. coli
For the molecule B1, the “Increase of absorbance (405 nm)” value in assay [1] is 0.307. In assay [2], the “BGL activity (relative value) in the presence of 8 g/L glucose when BGL activity in the absence of glucose is taken as unity” value came out at 0.71 and the “BGL activity (relative value) in the presence of 20 g/L glucose when BGL activity in the absence of glucose is taken as unity” value turned out to be 0.70.

B2: Mutant 2: His-tagged polypeptide of SEQ ID NO: 8, 80% identity with SEQ ID NO: 1; tested as cell-free extract of transformed E. coli (protein)
chain: QIEGLINVMTLEEKVGQMAQLAIDLFIDVPTDTVIPEAARKGIIDYKIGSILNTYGGVSHSKEVWTYINAEFYKYTEETDLKIPILYGLDSIHGANFVNNFTSFPQQIGMAATFNPSLLKEGSRISAYETRAASVGWVFSPVMDLGLDPRWPRIWEGFGEDPYLSSQFGIASVHGFQGKDPNLIDEFHVAACAKHYLAYSNPFTGKDRTPAILSDIFIREYHLPSFKAAVDAGVASVMVNSGLINGIPTHMNHYLLTTVLKEELGFQGVIVTDWQDIENIHTRDHLAPTQKDAVKLAINAGIDMSMIPYNYDFIDYLIELVHEGEVSIDRINDAVRRILKMKAKMNLWDLPVTKSEDYPEFGSEAHANASYTAASESITLLKNENSTLPLAKNTKVLVVGPNSNSHRSLNGGWSYSWQGNAGVQYAVQYNTIYQAIQKVNGEENTVFSQGVRYIETGNYYEDEEVNISESVALARDVDYIILALGENTYTEKPGDLSDLEISQNQIDLAKALASTGKPIILVLNQGRPRIISRIEQLVSAILWIYWPGNYGGDALADILFGDVNPSGKLPVTYPRYSASL
modifications: His tag; amino acid sequence having 80% sequence identity with amino acid sequence of SEQ ID NO 1
notes: as for B1
Turning to B2, the “Increase of absorbance (405 nm)” value in assay [1] came out at 0.365. Further, in assay [2], the “BGL activity (relative value) in the presence of 8 g/L glucose when BGL activity in the absence of glucose is taken as unity” value is on record as 0.74 and the “BGL activity (relative value) in the presence of 20 g/L glucose when BGL activity in the absence of glucose is taken as unity” value stood at 0.72.
